Experimental data as given in US20180327495A1.

Biological target: Trop-2 (EGP-1) (human) (UniProt P09758)
Assay: cell-based or functional assay

Chain of Trop-2 (EGP-1) (human) (P09758 27-323): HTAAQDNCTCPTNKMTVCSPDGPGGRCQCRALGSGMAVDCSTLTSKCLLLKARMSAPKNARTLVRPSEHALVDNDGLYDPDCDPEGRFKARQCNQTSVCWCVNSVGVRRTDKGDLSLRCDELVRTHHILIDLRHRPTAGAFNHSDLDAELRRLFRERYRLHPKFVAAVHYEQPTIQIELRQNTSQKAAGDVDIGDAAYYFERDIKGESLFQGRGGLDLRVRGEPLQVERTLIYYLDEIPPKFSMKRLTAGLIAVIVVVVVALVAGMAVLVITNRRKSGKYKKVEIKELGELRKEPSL

ADCC, specific lysis (PBMC effectors, effector to target ratio 100:1, antibody at 33.3 nM): 8.5%
Substance: hRS7 (anti-EGP-1 / anti-Trop-2 humanized MAb), unconjugated IgG (antibody)
